The RNAGym collection of RNA variant scans (doi:10.7554/elife.80360)

B1: Hairpin Ribozyme (parent)
chain: GUCCUCUUUCACGUGCGCGUGAAAGAGAGAAGUGAACCAGAGAAACACACGUUGUGGUAUAUUACCUGGUA

Variants of: B1
Test: self-cleavage, relative activity (ratio to wild type); higher = more cleavage; co-transcriptional

Variant | self-cleavage
C16G U67C | 0.155
C18A G34U | 1.46
A28G A36C | 0.778
C3G U70A | 0.252
U20A A31C | 0.21
A28G C37U | 0.644
G25C A71G | 0.687
G1C G68U | 0.209
G19U A30G | 0.12
G19U A30U | 0.181
G19U C66A | 0.272
C46A G68C | 0.277
U5G A49C | 0.205
A36U A45G | 0.106
C3U G42A | 0.123
A44G U53C | 0.248
G25U C48G | 0.129
G27U G69C | 0.2
G32A A36C | 0.145
A30G C48A | 0.0555
A44G U58A | 0.17
G1C U67A | 0.109
C3A A23G | 0.613
U55C A71U | 0.16

Variant | self-cleavage
G29A A47G | 0.244
U14C G69C | 0.3
A22G G32C | 0.0859
A36G C50G | 0.382
U53G U63G | 0.156
A23C G27A | 0.464
C46A G54A | 0.126
G27C A49U | 0.129
G29U A44U | 0.125
A39C U67A | 0.272
C18A A36G | 0.972
A39U G57C | 0.134
G1A C4U | 0.241
U14G G32C | 0.0712
G32C C46G | 0.0694
G15C G40U | 0.23
A23G A28G | 1.23
C12U U20C | 0.894
U7C G15U | 1.05
U14C C38U | 0.493
U2C A23U | 0.185
C6G G13A | 0.45
A43G U53A | 0.152
A49G G54A | 0.64

Variant | self-cleavage
G32A A39C | 0.0881
U20G A24C | 0.789
G21A C48U | 0.0963
A11U U20G | 0.907
C6U U8C | 0.686
A26U A43G | 0.121
A23C C65U | 0.282
C46A U55C | 0.324
C50G C66U | 0.146
G17C C50G | 0.132
A26C U67C | 0.21
G19U A24G | 0.926
A35U G68A | 0.29
G1U G29A | 0.08
A44G G68U | 0.173
U9A G21U | 0.732
C12G A44C | 0.202
U55A A59C | 0.252
U8G A44C | 0.139
G17U U70G | 0.739
A30C A41C | 0.315
C6G U33C | 0.206
C16G A45G | 0.126
A39U G42U | 0.172

Variant | self-cleavage
U52A A64G | 0.603
G54U U63A | 0.267
A26C U53A | 0.521
A31G U67A | 0.0798
A41G G42A | 0.282
U63C A71G | 0.328
G34A C50A | 0.312
C3G A49U | 0.188
G29A A41G | 0.106
A28U U58C | 0.58
U7A G54C | 0.349
G27U C66A | 0.169
C48A G51U | 0.141
C38U A41U | 0.742
U2A U60A | 0.175
G34C A47G | 0.448
A39G U58C | 0.272
U8G G54U | 0.37
C46U U55A | 0.115
G15C C38U | 0.6
A35U G69A | 0.184
A26G A64G | 0.55
A44C A61G | 0.115
G1U U58C | 0.0791

Variant | self-cleavage
U60C U67G | 0.207
C6A A28C | 0.233
U14C A30U | 0.148
C12U C50A | 0.314
U8C U67G | 0.226
G19C U70A | 0.673
G57U G68U | 0.196
G40U A41C | 0.255
A23C A35G | 0.942
A23G G54U | 0.586
U9A U53A | 0.768
C18G C46G | 0.0987
U9G U67G | 0.279
C18G A47C | 0.242
A41U C48G | 0.241
U5G U53A | 0.455
G1U A28G | 0.0771
G19U U62A | 0.268
G19U U62G | 0.24
G40C C50A | 0.0683
A23G C37G | 0.311
A23C C50A | 0.318
G1U G40A | 0.123
A45C C46G | 0.152

Variant | self-cleavage
G15A U67A | 0.188
C10A G54A | 0.338
G13A A30C | 0.0871
U2C A28U | 0.0802
C4U G17U | 0.313
G29A A31G | 0.145
C12A A64C | 0.101
A30C C50A | 0.0998
A45C G56U | 0.203
C12U A59G | 0.116
C12A U60C | 0.893
C4A C16U | 0.197
U5A A59C | 0.262
A43G A45G | 0.104
A35U A43G | 0.0794
G57A U62A | 0.212
U5A A71G | 0.264
U5A A71U | 0.334
G56U C65A | 0.203
U8G C16G | 0.395
A43G G69C | 0.268
A23U A44C | 0.133
A35C C50A | 0.364
A39G A49G | 0.116

Variant | self-cleavage
U20C U62C | 0.462
C48G A64U | 0.149
G1A C6U | 0.195
U5G C12A | 0.124
G51A C65G | 0.287
A45C U70C | 0.241
G25A A49G | 0.275
G13U A28G | 0.725
C12U G27U | 0.199
A28U U70G | 0.338
C38G A59U | 0.125
G40A A44U | 0.178
C48G U55C | 0.106
U60C A64U | 0.183
C12U C48A | 0.107
A45C A49C | 0.142
U20A A47G | 0.185
G1A U5A | 0.152
G17C A41C | 0.983
U62A A64G | 0.093
A44U U67C | 0.099
G19U C38U | 0.481
G57C U70C | 0.216
